Earlier results in paper PMC7801465.

Target: SARS-CoV-2 spike (SARS-CoV-2) (UniProt P0DTC2)

In the case of Basigin (from UniProt P35613), the Kd is listed as 0.185 µM.
